Data reported in publication PMC4655416, “The activity of protein phosphatase 5 towards native clients is modulated by the middle- and C-terminal domains of Hsp90” (Scientific Reports, 2015).
“And” between values parts separate entries of the source, which are not always exact repeats. Identical values can stand only once.

What was measured:
[1] = molecular target: T1, C. elegans Hsp90 (CeHsp90), full-length (C. elegans, UniProt Q18688 1-702); test: AUC; sedimentation velocity with UV/VIS absorbance optics (OD280); PPH-5 titrated to a constant concentration of CeHsp90 (4 μM) or CeHsp90-MC (3.5 μM); global fit to sequential binding of a first and second PPH-5; settings: both partners purified
T1 construct: Hsp90/DAF-21 of C. elegans, full-length; also called Hsp90/DAF-21; nematode Hsp90; source: E. coli BL21-CodonPlus(DE3)-RIL, purified (Ni-NTA, Resource Q, gel filtration); not shown: His6, N-terminal, kept

[2] = molecular target: T1, C. elegans Hsp90 (CeHsp90), full-length; test: cell-based or functional assay
[3] = molecular target: T2, CeHsp90-derived MEEVD-containing peptide AEEDASRMEEVD (C. elegans); test: cell-based or functional assay
T2 peptide: AEEDASRMEEVD

B1: protein phosphatase 5 from C. elegans (PPH-5) (enzyme, UniProt Q9NES8 1-496, looked up)
chain: MAATITDDIVATVLESIEEKSYEDEKEKAGMIKDEANQFFKDQVYDVAADLYSVAIEIHPTAVLYGNRAQAYLKKELYGSALEDADNAIAIDPSYVKGFYRRATANMALGRFKKALTDYQAVVKVCPNDKDARAKFDECSKIVRRQKFEAAISTDHDKKTVAETLDINAMAIEDSYDGPRLEDKITKEFVLQLIKTFKNQQKLHKKYAFKMLLEFYNYVKSLPTMVEITVPTGKKFTICGDVHGQFYDLCNIFEINGYPSETNPYLFNGDFVDRGSFSVETIFTMIGFKLLYPNHFFMSRGNHESDVMNKMYGFEGEVKAKYTQQMCDMFTETFCWLPLCHLINEKIFVCHGGLFKEDGVTLEDIRKTDRNRQPPDEGIMCDLLWSDPQPINGRSPSKRGVGCQFGPDVTSKWCETNGIEYVVRSHEVKPEGYEMHHNGQCFTVFSAPNYCDQMNNKGAFITITGDNLTPRFTPFDAVPHPKLPPMAYANSLFGFN
notes: protein phosphatase 5 (PPH-5) of C. elegans; also called the phosphatase; source: E. coli BL21-CodonPlus(DE3)-RIL, purified (Ni-NTA, Resource Q, gel filtration); not shown: His6, N-terminal, kept
In the case of B1, the Kd [1] is reported as ~1 µM and 1 to 3 µM, the “stoichiometry N” value [1] is reported as 2 PPH-5 per CeHsp90 dimer and the “kcat of PPH-5 towards the model peptide KRpTIRR (50 μM) with 3 μM CeHsp90” value [2] is reported as 0.133 s⁻¹. The “pNPP turnover by PPH-5 in presence of 60 μM peptide …” value [3] was about 6 fold.
